Assay results taken from patent publication US20140274782A1, “AFFINITY REAGENTS AND METHODS FOR DETECTION, PURIFICATION, AND PROTEOMIC ANALYSIS OF METHYLATED PROTEINS” (The Board of Trustees of the Leland Stanford Junior …, priority 2013, published 2014).

B1: eEF1A1: protein with methylated lysine identified in 3xMBT pull-down (protein, UniProt P68104 2-462, looked up)
Elongation factor 1-alpha 1: GKEKTHINIVVIGHVDSGKSTTTGHLIYKCGGIDKRTIEKFEKEAAEMGKGSFKYAWVLDKLKAERERGITIDISLWKFETSKYYVTIIDAPGHRDFIKNMITGTSQADCAVLIVAAGVGEFEAGISKNGQTREHALLAYTLGVKQLIVGVNKMDSTEPPYSQKRYEEIVKEVSTYIKKIGYNPDTVAFVPISGWNGDNMLEPSANMPWFKGWKVTRKDGNASGTTLLEALDCILPPTRPTDKPLRLPLQDVYKIGGIGTVPVGRVETGVLKPGMVVTFAPVNVTTEVKSVEMHHEALSEALPGDNVGFNVKNVSVKDVRRGNVAGDSKNDPPMEAAGFTAQVIILNHPGQISAGYAPVLDCHTAHIACKFAELKEKIDRRSGKKLEDGPKFLKSGDAAIVDMVPGKPMCVESFSDYPPLGRFAVRDMRQTVAVGVIKAVDKKAAGAGKVTKSAQKAQKAK
modifications: methylated lysine
notes: protein with methylated lysine identified in 3xMBT pull-down
B2: CMAS: protein with methylated lysine identified in 3xMBT pull-down (protein, UniProt Q8NFW8 1-434, looked up)
N-acylneuraminate …: MDSVEKGAATSVSNPRGRPSRGRPPKLQRNSRGGQGRGVEKPPHLAALILARGGSKGIPLKNIKHLAGVPLIGWVLRAALDSGAFQSVWVSTDHDEIENVAKQFGAQVHRRSSEVSKDSSTSLDAIIEFLNYHNEVDIVGNIQATSPCLHPTDLQKVAEMIREEGYDSVFSVVRRHQFRWSEIQKGVREVTEPLNLNPAKRPRRQDWDGELYENGSFYFAKRHLIEMGYLQGGKMAYYEMRAEHSVDIDVDIDWPIAEQRVLRYGYFGKEKLKEIKLLVCNIDGCLTNGHIYVSGDQKEIISYDVKDAIGISLLKKSGIEVRLISERACSKQTLSSLKLDCKMEVSVSDKLAVVDEWRKEMGLCWKEVAYLGNEVSDEECLKRVGLSGAPADACSTAQKAVGYICKCNGGRGAIREFAEHICLLMEKVNNSCQK
B3: DDX1: protein with methylated lysine identified in 3xMBT pull-down (protein, UniProt Q92499 1-740, looked up)
ATP-dependent RNA helicase …: MAAFSEMGVMPEIAQAVEEMDWLLPTDIQAESIPLILGGGDVLMAAETGSGKTGAFSIPVIQIVYETLKDQQEGKKGKTTIKTGASVLNKWQMNPYDRGSAFAIGSDGLCCQSREVKEWHGCRATKGLMKGKHYYEVSCHDQGLCRVGWSTMQASLDLGTDKFGFGFGGTGKKSHNKQFDNYGEEFTMHDTIGCYLDIDKGHVKFSKNGKDLGLAFEIPPHMKNQALFPACVLKNAELKFNFGEEEFKFPPKDGFVALSKAPDGYIVKSQHSGNAQVTQTKFLPNAPKALIVEPSRELAEQTLNNIKQFKKYIDNPKLRELLIIGGVAARDQLSVLENGVDIVVGTPGRLDDLVSTGKLNLSQVRFLVLDEADGLLSQGYSDFINRMHNQIPQVTSDGKRLQVIVCSATLHSFDVKKLSEKIMHFPTWVDLKGEDSVPDTVHHVVVPVNPKTDRLWERLGKSHIRTDDVHAKDNTRPGANSPEMWSEAIKILKGEYAVRAIKEHKMDQAIIFCRTKIDCDNLEQYFIQQGGGPDKKGHQFSCVCLHGDRKPHERKQNLERFKKGDVRFLICTDVAARGIDIHGVPYVINVTLPDEKQNYVHRIGRVGRAERMGLAISLVATEKEKVWYHVCSSRGKGCYNTRLKEDGGCTIWYNEMQLLSEIEEHLNCTISQVEPDIKVPVDEFDGKVTYGQKRAAGGGSYKGHVDILAPTVQELAALEKEAQTSFLHLGYLPNQLFRTF

Molecular target: T1, G9a and GLP (Homo sapiens, UniProt Q96KQ7+Q9H9B1)
T1 sequence (Q96KQ7 2-1210 limits assumed): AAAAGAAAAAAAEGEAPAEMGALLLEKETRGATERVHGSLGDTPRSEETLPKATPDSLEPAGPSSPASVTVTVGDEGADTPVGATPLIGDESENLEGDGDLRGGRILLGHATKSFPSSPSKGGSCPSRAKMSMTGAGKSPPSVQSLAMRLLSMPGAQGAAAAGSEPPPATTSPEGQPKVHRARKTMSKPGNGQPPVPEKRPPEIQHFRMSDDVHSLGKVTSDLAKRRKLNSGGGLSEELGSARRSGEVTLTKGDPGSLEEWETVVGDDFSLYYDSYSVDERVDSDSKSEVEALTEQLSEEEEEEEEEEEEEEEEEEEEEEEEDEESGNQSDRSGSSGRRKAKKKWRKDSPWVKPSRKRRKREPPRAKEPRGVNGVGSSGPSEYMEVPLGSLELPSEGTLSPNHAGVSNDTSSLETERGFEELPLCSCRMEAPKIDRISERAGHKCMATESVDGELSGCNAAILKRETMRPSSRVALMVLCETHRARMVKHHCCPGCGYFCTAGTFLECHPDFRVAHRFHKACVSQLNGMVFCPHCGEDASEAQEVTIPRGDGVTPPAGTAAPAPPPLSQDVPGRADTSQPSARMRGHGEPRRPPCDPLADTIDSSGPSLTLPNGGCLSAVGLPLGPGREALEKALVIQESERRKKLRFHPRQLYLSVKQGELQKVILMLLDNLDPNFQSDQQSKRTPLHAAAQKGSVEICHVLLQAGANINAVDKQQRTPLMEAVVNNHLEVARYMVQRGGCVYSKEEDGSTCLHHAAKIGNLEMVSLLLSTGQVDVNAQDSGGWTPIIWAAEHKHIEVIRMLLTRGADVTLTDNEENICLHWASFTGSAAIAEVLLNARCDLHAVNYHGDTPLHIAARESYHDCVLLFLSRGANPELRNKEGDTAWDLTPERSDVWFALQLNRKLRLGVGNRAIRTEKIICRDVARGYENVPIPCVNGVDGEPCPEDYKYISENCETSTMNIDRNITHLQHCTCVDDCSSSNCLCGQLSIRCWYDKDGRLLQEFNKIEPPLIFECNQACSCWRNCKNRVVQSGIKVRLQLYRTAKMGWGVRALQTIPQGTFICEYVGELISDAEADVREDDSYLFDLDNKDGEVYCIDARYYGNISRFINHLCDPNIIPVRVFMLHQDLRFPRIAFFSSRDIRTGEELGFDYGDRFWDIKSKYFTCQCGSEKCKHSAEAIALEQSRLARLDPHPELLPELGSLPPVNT
T1 sequence (Q9H9B1 2-1298 limits assumed): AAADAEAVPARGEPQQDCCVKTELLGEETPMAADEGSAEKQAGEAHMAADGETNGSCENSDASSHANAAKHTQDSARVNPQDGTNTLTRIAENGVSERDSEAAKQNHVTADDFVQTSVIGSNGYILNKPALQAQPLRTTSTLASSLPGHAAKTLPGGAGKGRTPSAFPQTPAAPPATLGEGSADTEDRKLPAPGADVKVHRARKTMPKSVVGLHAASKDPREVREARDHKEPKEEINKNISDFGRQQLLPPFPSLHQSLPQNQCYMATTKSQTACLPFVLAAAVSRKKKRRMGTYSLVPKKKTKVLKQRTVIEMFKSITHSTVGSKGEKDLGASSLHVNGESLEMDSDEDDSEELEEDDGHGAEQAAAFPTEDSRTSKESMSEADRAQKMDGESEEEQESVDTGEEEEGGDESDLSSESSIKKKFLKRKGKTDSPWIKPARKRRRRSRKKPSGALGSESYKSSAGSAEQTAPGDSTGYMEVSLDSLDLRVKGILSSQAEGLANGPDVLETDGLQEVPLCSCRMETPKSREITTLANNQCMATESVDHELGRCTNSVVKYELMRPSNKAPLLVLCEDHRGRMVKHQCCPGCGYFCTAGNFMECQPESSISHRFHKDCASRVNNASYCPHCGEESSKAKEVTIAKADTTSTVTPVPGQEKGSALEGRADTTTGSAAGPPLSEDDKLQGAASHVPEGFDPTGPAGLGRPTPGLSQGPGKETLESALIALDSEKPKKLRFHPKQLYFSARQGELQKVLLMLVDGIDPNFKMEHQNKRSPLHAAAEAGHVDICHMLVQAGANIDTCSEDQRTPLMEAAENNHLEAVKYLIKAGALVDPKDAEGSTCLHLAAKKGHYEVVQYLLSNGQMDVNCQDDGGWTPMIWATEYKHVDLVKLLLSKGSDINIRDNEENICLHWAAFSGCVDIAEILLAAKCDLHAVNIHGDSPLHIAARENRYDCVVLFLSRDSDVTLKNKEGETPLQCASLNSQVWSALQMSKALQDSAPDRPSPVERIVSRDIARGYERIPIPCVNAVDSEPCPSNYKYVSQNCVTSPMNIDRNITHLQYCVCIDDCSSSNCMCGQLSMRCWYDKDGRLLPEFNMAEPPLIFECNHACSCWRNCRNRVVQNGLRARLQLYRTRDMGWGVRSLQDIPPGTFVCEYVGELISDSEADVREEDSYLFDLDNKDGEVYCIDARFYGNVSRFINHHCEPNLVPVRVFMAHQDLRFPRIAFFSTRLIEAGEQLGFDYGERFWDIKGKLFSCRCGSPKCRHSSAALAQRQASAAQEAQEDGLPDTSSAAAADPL
Test: Triple SILAC pull-down after UNC0638 treatment of 293T cells, DMSO/UNC0638 ratio of protein captured by 3×MBT;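 note: mass spectrometry (Q-Exactive) SILAC quantitation, DMSO/UNC0638 ratio computed after subtracting 3×MBTD355N mutant pull-down background, only proteins with at least twofold 3×MBT over mutant signal considered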
Assay type: cell-based
Parameters: cells were treated for 24 hours with UNC0638 at 2.5 μM or DMSO vehicle control; endogenous in cells; host or cells: HEK 293T
Conditions: for Relative to UNC0638 UNC Heavy / Relative to UNC0638 UNC Light: SILAC ratio DMSO/UNC0638 of protein pulled down with 3xMBT; for Relative to UNC0638 UNC Heavy: UNC0638 in heavy SILAC media; for Relative to UNC0638 UNC Light: UNC0638 in light SILAC media; for Relative to UNC0638 Average: average of UNC Light and UNC Heavy experiments

Relative to UNC0638 UNC Heavy | Relative to UNC0638 UNC Light | Relative to UNC0638 Average | Molecule
0.27 log base 2 | 0.04 log base 2 | 0.15 log base 2 | B1
0.22 log base 2 | 0.12 log base 2 | 0.17 log base 2 | B2
0.02 log base 2 | 0.29 log base 2 | 0.16 log base 2 | B3
